Assay results published in US20260242839A1, “GLYCOSIDE PRODUCT BIOSYNTHESIS AND RECOVERY” (Manus Bio Inc., priority 2023, published 2026).
Residue numbers refer to the chain shown, from its start. In names and notes the source's numbering stands.

B1: SEQ ID NO: 74: CcUGT_1,6 (Coffea canephora) (protein, listed as Coffea canephora)
chain: MAENHATFNVLMLPWLAHGHVSPYLELAMKLTARNFNVYLCSSPATLSSVRSKLTEKFSQSIHLVELHLPKLPELPAEYHTTNGLPPHLMPTLKDAFDMAKPNFCNVLKSLKPDLLIYDLLQPWAPEAASAFNIPAVVFISSSATMTSFGLHFFKNPGTKYPYGNTIFYRDYESVFVENLKKRDRDTYRVVNCMERSSKIILIKGFKEIEGKYFDYFSCLTGKKVVPVGPLVQDPVLDDEDCRIMQWLNKKEKGSTVFVSFGSEYFLSKEDMEEIAHGLELSNVDFIWVVRFPKGENIVIEETLPKGFFERVGERGLVVNGWAPQAKILTHPNVGGFVSHCGWNSVMESMKFGLPIVAMPMHLDQPINARLIEEVGAGVEVLRDSKGKLHRERMAETINKVTKEASGEPARKKARELQEKLELKGDEEIDDVVKELVQLCATKNKRNGLHCYN
B2: G210E: mutation to UGT enzyme of SEQ ID NO: 13 (protein)
chain: MATKGSSGMSLAERFWLTLSRSSLVVGRSCVEFEPETVPLLSTLRGKPITFLGLMPPLHEGRREDGEDATVRWLDAQPAKSVVYVALGSEVPLGVEKVHELALGLELAGTRFLWALRKPTGVSDADLLPAGFEERTRGRGVVATRWVPQMSILAHAAVGAFLTHCGWNSTIEGLMFGHPLIMLPIFGDQGPNARLIEAKNAGLQVARNDEDGSFDREGVAAAIRAVAVEEESSKVFQAKAKKLQEIVADMACHERYIDGFIQQLRSYKDDSGYSSSYAAAAGMHVVICPWLAFGHLLPCLDLAQRLASRGHRVSFVSTPRNISRLPPVRPALAPLVAFVALPLPRVEGLPDGAESTNDVPHDRPDMVELHRRAFDGLAAPFSEFLGTACADWVIVDVFHHWAAAAALEHKVPCAMMLLGSAEMIASIADERLEHAETESPAAAGQGRPAAAPTFEVARMKLIR
B3: F186T: mutation to UGT enzyme of SEQ ID NO: 13 (protein)
chain: B2 chain with F186T, E210G
B4: C288F: mutation to UGT enzyme of SEQ ID NO: 13 (protein)
chain: B2 chain with E210G, C288F
B5: F186I: mutation to UGT enzyme of SEQ ID NO: 13 (protein)
chain: B2 chain with F186I, E210G
B6: M55L: mutation to UGT enzyme of SEQ ID NO: 13 (protein)
chain: B2 chain with M55L, E210G
B7: T453R: mutation to UGT enzyme of SEQ ID NO: 13 (protein)
chain: B2 chain with E210G, T453R
B8: V456W: mutation to UGT enzyme of SEQ ID NO: 13 (protein)
chain: B2 chain with E210G, V456W
B9: V397C: mutation to UGT enzyme of SEQ ID NO: 13 (protein)
chain: B2 chain with E210G, V397C
B10: A451T: mutation to UGT enzyme of SEQ ID NO: 13 (protein)
chain: B2 chain with E210G, A451T
B11: A451L: mutation to UGT enzyme of SEQ ID NO: 13 (protein)
chain: B2 chain with E210G, A451L
B12: V91A: mutation to UGT enzyme of SEQ ID NO: 13 (protein)
chain: B2 chain with V91A, E210G
B13: V456S: mutation to UGT enzyme of SEQ ID NO: 13 (protein)
chain: B2 chain with E210G, V456S
B14: T453K: mutation to UGT enzyme of SEQ ID NO: 13 (protein)
chain: B2 chain with E210G, T453K
B15: V397S: mutation to UGT enzyme of SEQ ID NO: 13 (protein)
chain: B2 chain with E210G, V397S
B16: A248G: mutation to UGT enzyme of SEQ ID NO: 13 (protein)
chain: B2 chain with E210G, A248G
B17: S20E: mutation to UGT enzyme of SEQ ID NO: 13 (protein)
chain: B2 chain with S20E, E210G
B18: G5N: mutation to UGT enzyme of SEQ ID NO: 13 (protein)
chain: B2 chain with G5N, E210G
B19: F186M: mutation to UGT enzyme of SEQ ID NO: 13 (protein)
chain: B2 chain with F186M, E210G
B20: V456M: mutation to UGT enzyme of SEQ ID NO: 13 (protein)
chain: B2 chain with E210G, V456M

System: Mog. IIE or Mog. IE
Assay: branched glycosylation reactions by cells expressing UGT enzymes
Format: cell-based, E. coli
Conditions: Mog. IIE or Mog. IE fed; 37° C., 48 hr; LC-MS/MS
Description: Mog. IIE or Mog. IE was fed to cells expressing various UGT enzymes. Reactions were incubated at 37° C. for 48 hr. Products were quantified by LC-MS/MS with authentic standards of each compound. “Indirect” evidence means that consumption of substrate was observed.

| Molecule | C3 1-2 | C3 1-6 | C24 1-2 | C24 1-6 |
| --- | --- | --- | --- | --- |
| B1 | No | Yes | No | Yes |

System: steviol glycoside
Assay: steviol glycoside bioconversion by E. coli expressing individual mutations of UGT SEQ ID NO: 13
Format: cell-based
Conditions: fold improvement of % conversion vs parent UGT SEQ ID NO: 13; stevia leaf extract and glucose fed; 37° C., 48 hr
From the text: A UGT enzyme referred to as MbUGT1,2 is described in U.S. Pat. No. 10,743,567, which is hereby incorporated by reference. An engineered version of MbUGT1,2 (SEQ ID NO: 13) is described in US 2020/0087692, which is hereby incorporated by reference in its entirety. The UGT enzyme of SEQ ID NO: 13 was further engineered to improve activity for steviol glycoside bioconversion. […] Fold improvement is with respect to % steviol glycoside conversion of the parent UGT enzyme (SEQ ID NO: 13). SEQ ID NO: 14 has the following mutations from SEQ ID NO: 13: G5N, F186T, V397S. Stevia leaf extract and glucose were fed to the bioconversion strains. Bioconversion took place at 37° C. for 48 hr. Data were quantified by reverse phase LC DAD to quantify conversion of steviol glycosides.
Fold improvement (FI) is with respect to % steviol glycoside conversion.

| Molecule | FI %Stevioside→rebE | FI %rebA→rebD |
| --- | --- | --- |
| B2 | 1.2 | 1.2 |
| B3 | 1.8 | 1.7 |
| B4 | 1.7 | 1.5 |
| B5 | 2.6 | 2.1 |
| B6 | 1.1 | 1.0 |
| B7 | 1.4 | 1.6 |
| B8 | 1.2 | 1.2 |
| B9 | 1.9 | 1.9 |
| B10 | 1.8 | 2.0 |
| B11 | 1.4 | 1.5 |
| B12 | 1.1 | 1.1 |
| B13 | 1.5 | 1.6 |
| B14 | 1.4 | 1.6 |
| B15 | 3.8 | 3.4 |
| B16 | 1.1 | 1.1 |
| B17 | 1.2 | 1.1 |
| B18 | 1.5 | 1.5 |
| B19 | 2.9 | 2.3 |
| B20 | 1.5 | 1.5 |
